In US20200231659A1 (published 2020):
Numbering of substitutions follows the chain as printed.

T1: cystic fibrosis transmembrane conductance regulator (CFTR) inhibitory factor (Cif) (Pseudomonas aeruginosa)
T1 chain: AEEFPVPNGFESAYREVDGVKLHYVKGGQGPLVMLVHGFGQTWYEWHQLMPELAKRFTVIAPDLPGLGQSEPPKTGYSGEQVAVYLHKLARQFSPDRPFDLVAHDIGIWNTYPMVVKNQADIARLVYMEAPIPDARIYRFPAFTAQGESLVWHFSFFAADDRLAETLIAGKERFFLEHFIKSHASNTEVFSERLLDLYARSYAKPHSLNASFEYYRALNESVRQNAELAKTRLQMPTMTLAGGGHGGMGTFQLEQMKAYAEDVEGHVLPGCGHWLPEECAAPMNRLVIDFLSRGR

B1: VHH CLONE 320 (VHH)
VHH: DVQLQASGGGLVQPGGSLRLSCATSTSVFSITTLGWYRQAPGKQRELVASMKRGGDTNYADSVKGRFTISRDNARNTVFLQMNNLTTEDTAVYYCNAAILAYTGAVTNYWGQGTQVTVSS
B2: VHH CLONE 103 (VHH)
VHH: EVQLMESAGGLVRPGGSLRLSCVASGSIGDIYSMGWYRQAPGKQRELVATVGAGGLTDYGDSVLGRFTISRDKTKGTVSLEMNSLKPEDTAVYYCNADVSIGPTGLRVYWGQGTQVTVSS
B3: VHH CLONE 116 (VHH)
VHH: EVQLVESGGGLVQPGGSLRLSCTASGSILKIYTMDWYRQAPGKQRDLVATVSSRGDTDYTDSVKGRFTISRDDAKNTAYLQMSSLKPEDTAVYYCNFYIQSRTAPFNDYWGQGTQVTVSS
B4: VHH CLONE 213 (VHH)
VHH: EVQLVESVGGLVQPGGSLRLSCVASGNIGDIYTMGWYRQAPGKQRELVATVGDGGLTNFVDSVKGRFTISRDKSKGTVSLEMNSLKPEDTAVYYCNADVRIGPTGLRVYWGQGTQVTVSS
B5: VHH CLONE 302 (VHH)
VHH: B4 VHH with E1Q, Q3K, V5Q, V8G
B6: VHH CLONE 220 (VHH)
VHH: B4 VHH with V8G, D30N, T50A, D53A, G55E, F59Y, R100S
B7: VHH CLONE 108 (VHH)
VHH: EVQLVESGGGLVQPGGSLRLSCEATGNFDDRGIGWFRQAPGKEREGIACITTRGRTHYAESVEGRFTISTDIANNAVYLQMNSLKPEDTAVYYCAKAIRLTTDRTQCVAFPGVSWGRGTQVTVSS
B8: VHH CLONE 205 (VHH)
VHH: DVQLQASGGGLVQPGGSLRLSCAATGSTDRIAFMGWYRQAPGKLRELVAGITSDGRTNYADDVDVSGRFTISRDSAKNMVYLQMNSLKPEDTAVYYCNADITLAMGGLRVYWGQGTQVTVSS

Assays:
[1] = biological target: cystic fibrosis transmembrane conductance regulator (CFTR) inhibitory factor (Cif) (Pseudomonas aeruginosa); experiment: cell-based or functional assay
[2] = biological target: T1, cystic fibrosis transmembrane …; experiment: sandwich ELISA

| Binder | IC50 [2] [µg/mL] | also measured |
| --- | --- | --- |
| B1 | 0.0061 | % inhibition of Cif activity, [nab] tested 0.23 mg/mL [1]: 9% |
| B2 | 0.0168 | % inhibition of Cif activity, [nab] tested 0.5 mg/mL [1]: 2% |
| B3 | 0.0312 | % inhibition of Cif activity, [nab] tested 0.275 mg/mL [1]: 11% |
| B4 | 0.011 | % inhibition of Cif activity, [nab] tested 0.55 mg/mL [1]: 0% |
| B5 | 0.0172 | % inhibition of Cif activity, [nab] tested 0.5 mg/mL [1]: 0% |
| B6 | 0.0211 | % inhibition of Cif activity, [nab] tested 0.475 mg/mL [1]: 0% |
| B7 | 0.0098 | % inhibition of Cif activity, [nab] tested 0.275 mg/mL [1]: 19% |
| B8 | 0.0207 | % inhibition of Cif activity, [nab] tested 0.125 mg/mL [1]: 0% |
